This note sets out measurements from IntAct's records for PubMed 31548606.

The labels stand for the following.
B1: Prelamin-A/C (Homo sapiens), P02545-1 (parent)
chain: METPSQRRATRSGAQASSTPLSPTRITRLQEKEDLQELNDRLAVYIDRVRSLETENAGLRLRITESEEVVSREVSGIKAAYEAELGDARKTLDSVAKERARLQLELSKVREEFKELKARNTKKEGDLIAAQARLKDLEALLNSKEAALSTALSEKRTLEGELHDLRGQVAKLEAALGEAKKQLQDEMLRRVDAENRLQTMKEELDFQKNIYSEELRETKRRHETRLVEIDNGKQREFESRLADALQELRAQHEDQVEQYKKELEKTYSAKLDNARQSAERNSNLVGAAHEELQQSRIRIDSLSAQLSQLQKQLAAKEAKLRDLEDSLARERDTSRRLLAEKEREMAEMRARMQQQLDEYQELLDIKLALDMEIHAYRKLLEGEEERLRLSPSPTSQRSRGRASSHSSQTQGGGSVTKKRKLESTESRSSFSQHARTSGRVAVEEVDEEGKFVRLRNKSNEDQSMGNWQIKRQNGDDPLLTYRFPPKFTLKAGQVVTIWAAGAGATHSPPTDLVWKAQNTWGCGNSLRTALINSTGEEVAMRKLVRSVTVVEDDEDEDGDDLLHHHHGSHCSSSGDPAEYNLRSRTVLCGTCGQPADKASASGSGAQVGGPISSGSSASSVTVTRSYRSVGGSGGGSFGDNLVTRSYLLGNSSPRTQSPQNCSIM
B2: Isoform 5 of Intermediate filament family orphan 1 (Homo sapiens), Q0D2I5-5 (parent)
chain: MNPLFGPNLFLLQQEQQGLAGPLGDSLGGDHFAGGGDLPPAPLSPAGPAAYSPPGPGPAPPAAMALRNDLGSNINVLKTLNLRFRCFLAKVHELERRNRLLEKQLQQALEEGKQGRRGLGRRDQAVQTGFVSPIRPLGLQLGARPAAVCSPSARVLGSPARSPAGPLAPSAASLSSSSTSTSTTYSSSARFMPGTIWSFSHARRLGPGLEPTLVQGPGLSWVHPDGVGVQIDTITPEIRALYNVLAKVKRERDEYKRRWEEEYTVRIQLQDRVNELQEEAQEADACQEELALKVEQLKAELVVFKGLMSNNLSELDTKIQEKAMKVDMDICRRIDITAKLCDVAQQRNCEDMIQMFQKKLVPSMGGRKRERKAAVEEDTSLSESEGPRQPDGDEEESTALSINEEMQRMLNQLREYDFEDDCDSLTWEETEETLLLWEDFSGYAMAAAEAQGEQQEDSLEKVIKDTESLFKTREKEYQETIDQIELELATAKNDMNRHLHEYMEMCSMKRGLDVQMETCRRLITQSGDRKSPAFTAVPLSDPPPPPSEAEDSDRDVSSDSSMR

The variants in one experiment derive from B1. Particulars: with iffo1_human IFFO1, Q0D2I5.
Regarding R386M, the “effect of a mutation on the interaction” value was “disrupting interaction strength”. On to E358K, for which the “effect of a mutation on the interaction” value was “disrupting interaction strength”.

Variants of B2 are the subject of the next experiment. Particulars: with xrcc4_human XRCC4, Q13426.
Chain of xrcc4_human XRCC4, Q13426 (Q13426 whole entry): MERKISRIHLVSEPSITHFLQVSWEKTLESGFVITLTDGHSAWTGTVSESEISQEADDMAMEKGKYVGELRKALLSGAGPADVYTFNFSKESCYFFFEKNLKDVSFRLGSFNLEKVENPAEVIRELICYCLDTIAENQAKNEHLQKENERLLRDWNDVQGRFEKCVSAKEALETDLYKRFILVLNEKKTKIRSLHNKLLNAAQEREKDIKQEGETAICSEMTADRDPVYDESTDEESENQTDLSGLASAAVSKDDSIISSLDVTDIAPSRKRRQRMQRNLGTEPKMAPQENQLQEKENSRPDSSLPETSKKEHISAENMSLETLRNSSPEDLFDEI
Turning to D494A;R520A, the “effect of a mutation on the interaction” value is listed as “disrupting interaction strength”. On the same count and under the same terms, for I484R;A491R the value was “disrupting interaction strength”; for C519R, “disrupting interaction strength”; for M516R;C519R, “disrupting interaction strength”. As for D494A;D513A;R520A, the “effect of a mutation on the interaction” value is listed as “disrupting interaction strength”.

In another experiment the parent is B2. Particulars: with lmna_human LMNA.
As to R85H, the “effect of a mutation on the interaction” value is reported as “disrupting interaction strength”. The same measure, in the same setting: next, N73K: “decreasing interaction strength”. As to N73D, the “effect of a mutation on the interaction” value is given as “disrupting interaction strength”. For A89T, the “effect of a mutation on the interaction” value is on record as “with no effect”.

For A89V, the “effect of a mutation on the interaction” value is “with no effect”. On the same count and under the same terms, for A65P the value was “with no effect”.

Turning to A65V, the “effect of a mutation on the interaction” value was “with no effect”.

The variants in a further experiment derive from B2. Particulars: with lmna_human LMNA. The source holds these as a separate data set.
N73D;R85H: the “effect of a mutation on the interaction” value is recorded as “disrupting interaction strength”.
